From PMC10505172 (2023)
“And” between values parts separate entries of the source, which are not always exact repeats. Equal values may be shown once. Read-outs that look alike come from different tables or passages of the source.

Tests used:
[1] = target: T1, HIS:SUMO:HD2 fusion protein (tick; entry name EVA4_RHISA, the …); assay: BLI
[2] = target: T1, HIS:SUMO:HD2 fusion protein; assay: BLI; remark: listed apart in the source

B1: CCL8 (ligand)
chain: QPDSVSIPITCCFNVINRKIPIQRLESYTRITNIQCPKEAVIFKTKRGKEVCADPKERWVRDSMKHLDQIFQNLKP
With B1 the Kd [1] was 142 nM and 84.9 nM and the Kd [2] was 142 nM.
